Measured values: US20240238445A1, “INHIBITORS AND USES THEREOF” (NEURACLE SCIENCE CO., LTD., priority 2021, published 2024)

B1: LRRC4B (453-576): LRRC4B ectodomain fragment, amino acids 453-576 of SEQ ID NO: 2; FLAG-tagged or hFc-fused (protein)
chain: VSAVDPVAAGGTGSGGGGPGGSGGVGGGSGGYTYFTTVTVETLETQPGEEALQPRGTEKEPPGPTTDGVWGGGRPGDAAGPASSSTTAPAPRSSRPTEKAFTVPITDVTENALKDLDDVMKTTK
modifications: FLAG tag or human Fc
notes: FLAG-tagged or hFc-fused
B2: LRRC4B (498-576): LRRC4B ectodomain fragment, amino acids 498-576 of SEQ ID NO: 2 (protein)
chain: QPGEEALQPRGTEKEPPGPTTDGVWGGGRPGDAAGPASSSTTAPAPRSSRPTEKAFTVPITDVTENALKDLDDVMKTTK

Tests used:
FAM19A5 protein [1] = target: T1, FAM19A5 protein (Homo sapiens, UniProt Q7Z5A7); assay: ELISA binding of recombinant FAM19A5 to coated hFc-conjugated LRRC4 family ectodomains, fragments or synthetic peptides; settings: coated 100 nM/well, FAM19A5 up to 10 nM
T1 sequence (Q7Z5A7 44-132): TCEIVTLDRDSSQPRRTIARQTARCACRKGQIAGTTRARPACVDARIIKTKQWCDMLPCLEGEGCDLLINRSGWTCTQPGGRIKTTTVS
Method: Next, to confirm the above co-immunoprecipitation results, an ELISA assay was used to measure the binding of the FAM19A5 protein to either the full-length ectodomain of members of LRRC4 protein family or various LRRC4B ectodomain protein fragments. Specifically, an ELISA plate was coated with one of the following LRRC4B ectodomain protein, which was conjugated to human Fc (100 nM/well): (1) full-length ectodomain of LRRC4 protein (amino acid residues 39-527 of SEQ ID NO: 1) (SEQ ID NO: 4); (2) full-length ectodomain of LRRC4B protein (amino acids 36-576 of SEQ ID NO: 2; i.e., construct #7 in Table 6) (SEQ ID NO: 5); (3) full-length ectodomain of LRRC4C protein (amino acids 45-527 of SEQ ID NO: 3) (SEQ ID NO: 6); (4) LRRC4B ectodomain fragment (amino acids 453-576 of SEQ ID NO: 2; i.e., construct #11 in Table 6) (SEQ ID NO: 7); (5) LRRC4B ectodomain fragment (amino acids 484-576 of SEQ ID NO: 2; i.e., construct #12 in Table 6) (SEQ ID NO: 8); (6) LRRC4B ectodomain fragment (amino acids 482-576 of SEQ ID NO: 2) (SEQ ID NO: 9); (7) LRRC4B ectodomain fragment (amino acids 482-497 of SEQ ID NO: 2) (SEQ ID NO: 10); and (8) LRRC4B ectodomain fragment (amino acids 498-576 of SEQ ID NO: 2; i.e., construct #13 in Table 6) (SEQ ID NO: 11). Then, recombinant FAM19A5 proteins (0.005, 0.01, 0.025, 0.05, 0.1, 0.25, 0.5, 1, 2.5, 5, and 10 nM) were added to the relevant wells, and the plates were incubated at 37° C. for 1 hour. Afterwards, the amount of LRRC4B-bound FAM19A5 protein was detected using HRP-conjugated anti-FAM19A5 (1-65) antibody.
As further confirmation, three synthetic polypeptides comprising amino acids 484-497 of SEQ ID NO: 2 (i.e., YTYFTTVTVETLET; SEQ ID NO: 65) were constructed: (1) FB-16 (GYTYFTTVTVETLETQ; SEQ ID NO: 17), (2) FB-20 ([…]; SEQ ID NO: 18), and (3) FB-28 ([…]; SEQ ID NO: 19). The peptides differed in their total length. The ability of these polypeptides to bind to recombinant FAM19A5 protein was assessed using an ELISA assay as described above.

[2] = tested on: mouse primary cortical neurons; assay: Neurite growth of mouse primary cortical neurons in vitro; type: cell-based; settings: for neurite growth / neurite outgrowth: treated days 1 and 2, assessed day 3, anti-beta-tubulin III, LRRC4B fragment 0.006 to 60 nM, versus control
Method: Next, primary cortical neurons (day 1 postnatal) were cultured in vitro with varying concentrations (0.006 to 60 nM) of the LRRC4B (453-576) protein fragment (i.e., amino acid residues 453-576 of SEQ ID NO: 2; SEQ ID NO: 7), and then at day 3 post-initial culture, the effect on neurite growth was assessed by immunostaining the cells with anti-beta-tubulin III antibody. Cells cultured with DMSO (“Veh”) were used as control.
Mouse hippocampal neurons were treated with LRRC4B peptides at 1 and 2 DIV to determine neurite growth. It was measured by using 3 different parameters, which are total neurites length, number of primary and secondary neurites. After the neurons were stained with beta-tubulin III at 3 DIV, neurites length and branch points were measured using Fiji (Image J, NIH, Bethesda). Individual neurons were selected by hand and these parameters were counted using the Simple neurite tracer plugin. Mouse spinal motor neurons sampled at postnatal day 1 were treated with 10 nM of NS101 and LRRC4B-peptides (dFB-dWY-JM31 and dFB-DY-JM31) at 1 and 2 DIV and immunostained with Tau-5 antibody at 3 DIV. Total neurite length and number of somas in images were measured by Neurphology Image J plugin.

FAM19A5 protein [3] = target: T1, FAM19A5 protein; assay: Co-immunoprecipitation of FLAG-tagged LRRC4 family deletion constructs/fragments with recombinant FAM19A5 in HEK293 cells; type: binding; settings: HEK293 cells expressing FLAG-tagged construct, recombinant FAM19A5 1 μM 30 minutes; IP anti-FLAG, blot anti-FAM19A5 (3-2)
In short: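 HEK293 cells expressing FLAG-tagged LRRC4B deletion constructs or LRRC4C (aa 354-527) / LRRC4 (aa 353-527) fragments were treated with 1 μM recombinant FAM19A5 for 30 min. Lysates immunoprecipitated with anti-FLAG and immunoblotted with anti-FLAG and anti-FAM19A5 (3-2) antibodies.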

[4] = day 3, compared to the control group

Row | Molecule | binding to FAM19A5 protein (ELISA, in words) (FAM19A5 protein [1]) | neurite growth / neurite outgrowth [2] | binding to FAM19A5 protein (co-immunoprecipitation) (FAM19A5 protein [3]) | neurite length [2, 4] | number of branching points [2, 4] | number of primary and secondary neurites [2, 4]
1 | GYTYFTTVTVETLETQPGEE [FB-20] | able to bind to recombinant FAM19A5 protein with high affinity | Increased neurite outgrowth |  |  |  | 
2 | B1 |  | increased neurite growth in a dose-dependent manner | able to bind to the FAM19A5 protein with varying degree | increased neurite length | increased number of branching points | increased number of primary and secondary neurites
3 | B2 | failed to bind to FAM19A5 |  | not able to do so |  |  | 
